The record followed here is patent US20240294622A1.

The target in the assay is DAN-his (Sinobiological) (human) (UniProt P41271). Nature of the assay: blocking ELISA: coated BMP2, antibody pre-incubated with human DAN-his, anti-his HRP; blocked ligand BMP2; fit value of a flat control curve; unit from the axis Concentration(nM). (ELISA stands for enzyme-linked immunosorbent assay.)
DAN-his (Sinobiological) (human), sequence (P41271 17-181 limits assumed): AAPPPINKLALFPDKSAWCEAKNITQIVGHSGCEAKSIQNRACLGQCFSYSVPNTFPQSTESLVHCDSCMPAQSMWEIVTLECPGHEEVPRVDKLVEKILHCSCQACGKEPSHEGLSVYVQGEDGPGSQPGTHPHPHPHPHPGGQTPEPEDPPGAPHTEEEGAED

A word on the IC50: it is the concentration that inhibits the measured activity by half. In turn, IgG1 (antibody) had an IC50 of 24.7 nM.
